Data as given in IntAct's records for PubMed 35512704.

B1: Speckle-type POZ protein (Homo sapiens), O43791 (parent)
chain: MSRVPSPPPPAEMSSGPVAESWCYTQIKVVKFSYMWTINNFSFCREEMGEVIKSSTFSSGANDKLKWCLRVNPKGLDEESKDYLSLYLLLVSCPKSEVRAKFKFSILNAKGEETKAMESQRAYRFVQGKDWGFKKFIRRDFLLDEANGLLPDDKLTLFCEVSVVQDSVNISGQNTMNMVKVPECRLADELGGLWENSRFTDCCLCVAGQEFQAHKAILAARSPVFSAMFEHEMEESKKNRVEINDVEPEVFKEMMCFIYTGKAPNLDKMADDLLAAADKYALERLKVMCEDALCSNLSVENAAEILILADLHSADQLKTQAVDFINYHASDVLETSGWKSMVVSHPHLVAEAYRSLASAQCPFLGPPRKRLKQS
partner: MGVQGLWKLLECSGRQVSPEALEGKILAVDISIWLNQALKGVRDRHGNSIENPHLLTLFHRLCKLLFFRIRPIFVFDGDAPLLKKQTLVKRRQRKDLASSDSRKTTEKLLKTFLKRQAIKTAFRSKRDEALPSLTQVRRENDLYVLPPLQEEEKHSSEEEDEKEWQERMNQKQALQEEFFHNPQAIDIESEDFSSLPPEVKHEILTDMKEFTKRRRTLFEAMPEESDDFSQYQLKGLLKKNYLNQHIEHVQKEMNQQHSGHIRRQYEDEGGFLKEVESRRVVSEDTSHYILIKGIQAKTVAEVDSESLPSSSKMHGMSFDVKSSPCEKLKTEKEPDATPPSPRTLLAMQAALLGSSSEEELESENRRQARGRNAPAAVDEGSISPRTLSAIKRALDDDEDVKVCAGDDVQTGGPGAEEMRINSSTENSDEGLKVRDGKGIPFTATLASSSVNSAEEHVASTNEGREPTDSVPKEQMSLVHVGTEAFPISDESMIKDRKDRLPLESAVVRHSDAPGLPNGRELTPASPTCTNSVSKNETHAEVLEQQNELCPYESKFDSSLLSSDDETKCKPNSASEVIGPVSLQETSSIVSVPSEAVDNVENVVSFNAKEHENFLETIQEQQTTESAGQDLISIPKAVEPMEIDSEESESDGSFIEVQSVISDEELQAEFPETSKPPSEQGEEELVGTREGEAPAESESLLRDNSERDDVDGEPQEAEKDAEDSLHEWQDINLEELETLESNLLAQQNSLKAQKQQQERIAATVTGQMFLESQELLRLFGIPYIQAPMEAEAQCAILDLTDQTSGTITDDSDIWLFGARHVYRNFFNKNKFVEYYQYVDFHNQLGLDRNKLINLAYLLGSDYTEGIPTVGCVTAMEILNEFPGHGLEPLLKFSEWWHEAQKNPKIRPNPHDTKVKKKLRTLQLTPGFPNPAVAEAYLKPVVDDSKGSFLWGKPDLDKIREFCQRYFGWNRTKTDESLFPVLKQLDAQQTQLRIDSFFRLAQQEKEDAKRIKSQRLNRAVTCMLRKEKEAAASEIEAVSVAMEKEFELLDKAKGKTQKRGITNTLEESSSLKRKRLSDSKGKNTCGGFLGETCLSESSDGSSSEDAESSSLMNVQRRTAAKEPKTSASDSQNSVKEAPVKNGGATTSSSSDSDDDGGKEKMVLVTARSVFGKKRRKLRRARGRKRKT
B2: Speckle-type POZ protein (Homo sapiens), O43791 (parent)
chain: B1 chain
partner: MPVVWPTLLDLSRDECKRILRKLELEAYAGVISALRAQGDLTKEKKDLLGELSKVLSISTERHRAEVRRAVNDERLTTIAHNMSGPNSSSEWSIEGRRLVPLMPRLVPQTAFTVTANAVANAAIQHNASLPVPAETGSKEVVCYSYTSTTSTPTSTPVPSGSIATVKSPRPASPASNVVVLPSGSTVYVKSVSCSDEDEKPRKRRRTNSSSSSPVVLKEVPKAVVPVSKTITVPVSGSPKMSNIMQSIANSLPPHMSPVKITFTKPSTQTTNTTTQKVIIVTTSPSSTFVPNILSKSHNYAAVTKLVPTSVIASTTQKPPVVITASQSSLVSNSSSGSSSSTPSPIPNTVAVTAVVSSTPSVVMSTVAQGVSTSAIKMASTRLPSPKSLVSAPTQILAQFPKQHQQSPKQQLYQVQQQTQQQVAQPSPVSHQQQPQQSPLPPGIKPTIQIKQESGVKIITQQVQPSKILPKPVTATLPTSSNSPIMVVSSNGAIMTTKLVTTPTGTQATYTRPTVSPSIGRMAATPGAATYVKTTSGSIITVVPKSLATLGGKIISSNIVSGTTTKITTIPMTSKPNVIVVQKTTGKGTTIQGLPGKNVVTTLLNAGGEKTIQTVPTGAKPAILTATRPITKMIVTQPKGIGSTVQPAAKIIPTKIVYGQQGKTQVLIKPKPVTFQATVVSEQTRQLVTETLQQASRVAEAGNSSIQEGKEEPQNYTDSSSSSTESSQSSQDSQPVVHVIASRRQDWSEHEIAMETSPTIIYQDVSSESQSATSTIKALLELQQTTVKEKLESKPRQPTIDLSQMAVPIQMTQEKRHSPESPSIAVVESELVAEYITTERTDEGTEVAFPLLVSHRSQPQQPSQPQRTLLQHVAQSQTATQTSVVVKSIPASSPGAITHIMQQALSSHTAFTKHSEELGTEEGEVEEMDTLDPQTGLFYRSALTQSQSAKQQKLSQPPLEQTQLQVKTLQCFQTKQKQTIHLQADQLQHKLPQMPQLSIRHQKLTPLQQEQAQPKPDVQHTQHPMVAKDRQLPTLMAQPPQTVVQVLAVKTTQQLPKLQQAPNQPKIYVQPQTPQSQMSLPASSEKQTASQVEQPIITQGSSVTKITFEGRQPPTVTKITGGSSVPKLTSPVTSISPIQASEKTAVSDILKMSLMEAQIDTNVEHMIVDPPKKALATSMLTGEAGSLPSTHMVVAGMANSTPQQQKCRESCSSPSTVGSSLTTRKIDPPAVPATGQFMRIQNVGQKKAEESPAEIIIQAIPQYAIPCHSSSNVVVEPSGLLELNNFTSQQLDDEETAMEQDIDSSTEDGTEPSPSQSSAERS

Variants of: B1
Details: with ercc5_human ERCC5, P28715

Variant	effect of a mutation on the interaction
MSRVPSPPPPAEMSSGPVAESWCYTQIKVVKFSYMWTINNFSFCREEMGEVIKSSTFSSGANDKLKWCLRVNPKGLDEESKDYLSLYLLLVSCPKSEVRAKFKFSILNAKGEETKAMESQRAYRFVQGKDWGLKKFIRRDFLLDEANGLLPDDKLTLFCEVSVVQDSVNISGQNTMNMVKVPECRLADELGGLWENSRFTDCCLCVAGQEFQAHKAILAARSPVFSAMFEHEMEESKKNRVEINDVEPEVFKEMMCFIYTGKAPNLDKMADDLLAAADKYALERLKVMCEDALCSNLSVENAAEILILADLHSADQLKTQAVDFINYHASDVLETSGWKSMVVSHPHLVAEAYRSLASAQCPFLGPPRKRLKQS [F133L]	with no effect

Variants of: B1
Details: with ercc5_human ERCC5, P28715
Remark: another data set of the same source

Variant	effect of a mutation on the interaction
MSRVPSPPPPAEMSSGPVAESWCYTQIKVVKFSYMWTINNFSFCREEMGEVIKSSTFSSGANDKLKWCLRVNPKGLDEESKDYLSLYLLLVSCPKSEVRAKCKFSILNAKGEETKAMESQRAYRFVQGKDWGFKKFIRRDFLLDEANGLLPDDKLTLFCEVSVVQDSVNISGQNTMNMVKVPECRLADELGGLWENSRFTDCCLCVAGQEFQAHKAILAARSPVFSAMFEHEMEESKKNRVEINDVEPEVFKEMMCFIYTGKAPNLDKMADDLLAAADKYALERLKVMCEDALCSNLSVENAAEILILADLHSADQLKTQAVDFINYHASDVLETSGWKSMVVSHPHLVAEAYRSLASAQCPFLGPPRKRLKQS [F102C]	with no effect

Variants of: B2
Details: with emsy_human EMSY

Variant	effect of a mutation on the interaction
MSRVPSPPPPAEMSSGPVAESWCYTQIKVVKFSYMWTINNFSFCREEMGEVIKSSTFSSGANDKLKWCLRVNPKGLDEESKDYLSLCLLLVSCPKSEVRAKFKFSILNAKGEETKAMESQRAYRFVQGKDWGFKKFIRRDFLLDEANGLLPDDKLTLFCEVSVVQDSVNISGQNTMNMVKVPECRLADELGGLWENSRFTDCCLCVAGQEFQAHKAILAARSPVFSAMFEHEMEESKKNRVEINDVEPEVFKEMMCFIYTGKAPNLDKMADDLLAAADKYALERLKVMCEDALCSNLSVENAAEILILADLHSADQLKTQAVDFINYHASDVLETSGWKSMVVSHPHLVAEAYRSLASAQCPFLGPPRKRLKQS [Y87C]	with no effect

Variants of: B2
Details: with emsy_human EMSY
Remark: another data set of the same source

Variant	effect of a mutation on the interaction
MSRVPSPPPPAEMSSGPVAESWCYTQIKVVKFSYMWTINNFSFCREEMGEVIKSSTFSSGANDKLKWCLRVNPKGLDEESKDYLSLYLLLVSCPKSEVRAKFKFSILNAKGEETKAMESQRAYRFVQGKDWGVKKFIRRDFLLDEANGLLPDDKLTLFCEVSVVQDSVNISGQNTMNMVKVPECRLADELGGLWENSRFTDCCLCVAGQEFQAHKAILAARSPVFSAMFEHEMEESKKNRVEINDVEPEVFKEMMCFIYTGKAPNLDKMADDLLAAADKYALERLKVMCEDALCSNLSVENAAEILILADLHSADQLKTQAVDFINYHASDVLETSGWKSMVVSHPHLVAEAYRSLASAQCPFLGPPRKRLKQS [F133V]	with no effect
